± gives the uncertainty stated by the source.
Assay: self-splicing fitness, log relative to wild type (ln ratio); higher = more splicing; Tetrahymena group I intron in knt gene, E. coli kanamycin selection, DiMSum; sequences stand for … in CUCUCU…GGAGGGAAAAGUUAUCAGGCAUGCACCUGGUAGCUAGUCUUUAAACCAAUAGAUUGCAUCGGUUUAAAAGGCAAGACCGUCAAAUUGCGGGAAAGGGGUCAACAGCCGUUCAGUACCAAGUCUCAGGGGAAACUUUGAGAUGGCCUUGCAAAGGGUAUGGUAAUAAGCUGACGGACAUGGUCCUAACCACGCAGCCAAGUCCUAAGUCAACAGAUCUUCUGUUGAUAUGGAUGCAGUUCACAGACUAAAUGUCGGUCGGGGAAGAUGUAUUCUUCUCAUAAGAUAUAGUCGGACCUCUCCUUAAUGGGAGCUAGCGGAUGAAGUGAUGCAACACUGGAGCCGCUGGGAACUAAUUUGUAUGCGAAAGUAUAUUGAUUAGUUUUGGAGUACUCGUGGUCG
Method in brief: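 Fitness was computed with DiMSum as the error-weighted combination of replicate fold changes, kanamycin versus none, each normalised to wild type. The library randomised all eight intron nucleotides of the P1ex region, with the intron placed in the knt kanamycin-resistance gene on pET-22b(+) in E. coli BL21(DE3). Six replicate transformations were grown overnight at 37°C or 30°C on LB agar with or without 25 μg/mL kanamycin, plus 100 μg/mL carbenicillin, 50 μM IPTG and 0.2% rhamnose. Pooled colonies were amplicon-sequenced on an Illumina HiSeq 2500.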

Sequence	self-splicing fitness (ln) (30 °C)	self-splicing fitness (ln) (37 °C)
AUGCAGCAAUAUUACGUAAA	-1.44 ± 0.092	-1.14 ± 0.13
AUGCAGCAAUAUUACGUAAG	-0.932 ± 0.062	-0.743 ± 0.077
AUGCAGCAAUAUUACGUAAU	-0.641 ± 0.05	-0.479 ± 0.066
AUGCAGCAAUAUUACGUCAC		-1.09 ± 0.16
AUGCAGCAAUAUUACGUGUA	-2.34 ± 0.11	-0.835 ± 0.091
AUGGAGCAAUAUUACGAAAA		-0.761 ± 0.38
AUGGAGCAAUAUUACGAAAC	-2.72 ± 0.4	
AUGGAGCAAUAUUACGAAAU	-1.92 ± 0.23	
AUGGAGCAAUAUUACGACAU	-1.36 ± 0.017	-0.784 ± 0.035
AUGGAGCAAUAUUACGACGG		1.8 ± 0.38
AUGGAGCAAUAUUACGACUU	-1.73 ± 0.1	-1.08 ± 0.13
AUGGAGCAAUAUUACGAGCA	-2.33 ± 0.46	-1.17 ± 0.49
AUGGAGCAAUAUUACGAGUU	-4.04 ± 0.43	-3.03 ± 0.22
AUGGAGCAAUAUUACGAUCG		-1.1 ± 0.42
AUGGAGCAAUAUUACGAUUA	-1.13 ± 0.36	
AUGGAGCAAUAUUACGCACA	-1.57 ± 0.16	-0.961 ± 0.21
AUGGAGCAAUAUUACGCAGC	-2.14 ± 0.23	-2.54 ± 0.33
AUGGAGCAAUAUUACGCAUC	-3.74 ± 0.14	-3.29 ± 0.26
AUGGAGCAAUAUUACGCCAG	-2.26 ± 0.35	
AUGGAGCAAUAUUACGCCAU	-4.27 ± 0.46	-2.17 ± 0.34
AUGGAGCAAUAUUACGCUCA	-1.46 ± 0.17	-1.17 ± 0.18
AUGGAGCAAUAUUACGCUCG	-1.58 ± 0.14	-0.952 ± 0.18
AUGGAGCAAUAUUACGGAAC		-1.21 ± 0.42
AUGGAGCAAUAUUACGGAAG	-3.24 ± 0.38	
AUGGAGCAAUAUUACGGACG	-2.44 ± 0.32	-0.988 ± 0.3

Sequence	self-splicing fitness (ln) (30 °C)	self-splicing fitness (ln) (37 °C)
AUGGAGCAAUAUUACGGAGA	-2.93 ± 0.44	-1.21 ± 0.32
AUGGAGCAAUAUUACGGGUU	-2.3 ± 0.43	-3.16 ± 0.4
AUGGAGCAAUAUUACGGUUG	-4.12 ± 0.3	-2.21 ± 0.23
AUGGAGCAAUAUUACGUCAA	-1.77 ± 0.35	-0.821 ± 0.36
AUGGAGCAAUAUUACGUUUA	-2.59 ± 0.28	-1.83 ± 0.27
AUGUAGCAAUAUUACGAACU	-0.642 ± 0.12	0.131 ± 0.15
AUGUAGCAAUAUUACGAAGC	-3.22 ± 0.37	0.239 ± 0.23
AUGUAGCAAUAUUACGAAUU	-2 ± 0.12	-1.84 ± 0.16
AUGUAGCAAUAUUACGAGAC	-3.13 ± 0.31	-2.09 ± 0.2
AUGUAGCAAUAUUACGAGCG	-1.23 ± 0.11	-1.8 ± 0.14
AUGUAGCAAUAUUACGAUGA	-0.624 ± 0.15	-1.66 ± 0.15
AUGUAGCAAUAUUACGCAAA	-2.34 ± 0.33	-1.07 ± 0.2
AUGUAGCAAUAUUACGCAAU	-1.49 ± 0.13	-1.01 ± 0.23
AUGUAGCAAUAUUACGCACU	-0.786 ± 0.099	0.708 ± 0.14
AUGUAGCAAUAUUACGCAUG	-1.38 ± 0.095	-0.413 ± 0.12
AUGUAGCAAUAUUACGCCGA	-2.44 ± 0.2	-0.724 ± 0.16
AUGUAGCAAUAUUACGCCUU	-0.114 ± 0.1	-0.413 ± 0.13
AUGUAGCAAUAUUACGCGUC	-2.6 ± 0.22	-2.32 ± 0.3
AUGUAGCAAUAUUACGCUAC	-3.14 ± 0.34	-2.59 ± 0.34
AUGUAGCAAUAUUACGCUAG	-1.61 ± 0.21	-0.5 ± 0.22
AUGUAGCAAUAUUACGCUAU	-3.81 ± 0.23	-2.6 ± 0.23
AUGUAGCAAUAUUACGGAUU	-1.57 ± 0.092	-0.598 ± 0.091
AUGUAGCAAUAUUACGGCCC	-0.72 ± 0.34	-0.359 ± 0.25
AUGUAGCAAUAUUACGGGCA	-0.222 ± 0.11	0.141 ± 0.1
AUGUAGCAAUAUUACGGUCG	-1.44 ± 0.12	-1.59 ± 0.17

Sequence	self-splicing fitness (ln) (30 °C)	self-splicing fitness (ln) (37 °C)
AUGUAGCAAUAUUACGUAUG	-3.84 ± 0.29	-3.16 ± 0.28
AUUAAGCAAUAUUACGAACG	-1.59 ± 0.18	-0.243 ± 0.15
AUUAAGCAAUAUUACGAAGG	-3.82 ± 0.4	-2.5 ± 0.44
AUUAAGCAAUAUUACGAAGU	-2.77 ± 0.22	-0.565 ± 0.21
AUUAAGCAAUAUUACGACAU	0.191 ± 0.012	0.193 ± 0.032
AUUAAGCAAUAUUACGACCG	-1.51 ± 0.1	-0.619 ± 0.16
AUUAAGCAAUAUUACGAGAG	-2.61 ± 0.24	-1.83 ± 0.27
AUUAAGCAAUAUUACGAGUG	-2.42 ± 0.1	-2.37 ± 0.14
AUUAAGCAAUAUUACGAUGC	-2.09 ± 0.15	-1.86 ± 0.17
AUUAAGCAAUAUUACGCACU	-0.21 ± 0.13	-0.414 ± 0.13
AUUAAGCAAUAUUACGCAUU	-2.35 ± 0.14	-0.664 ± 0.13
AUUAAGCAAUAUUACGCUAC	-2.45 ± 0.43	-3.4 ± 0.35
AUUAAGCAAUAUUACGCUCA	-0.292 ± 0.068	-0.258 ± 0.091
AUUAAGCAAUAUUACGGAUU	-2.03 ± 0.12	-0.791 ± 0.15
AUUAAGCAAUAUUACGGCGG	-1.18 ± 0.16	-0.145 ± 0.18
AUUAAGCAAUAUUACGGGCU	-1.31 ± 0.13	-1.47 ± 0.17
AUUAAGCAAUAUUACGGGUC	-2.81 ± 0.21	-3.49 ± 0.37
AUUAAGCAAUAUUACGGUCG	-1.59 ± 0.11	-0.942 ± 0.12
AUUAAGCAAUAUUACGUAAU	-1.66 ± 0.11	-0.745 ± 0.14
AUUAAGCAAUAUUACGUAUA	-1.48 ± 0.16	-1.35 ± 0.14
AUUAAGCAAUAUUACGUCGG	-2.34 ± 0.18	-1.2 ± 0.22
AUUAAGCAAUAUUACGUUAU	-1.22 ± 0.097	-1.1 ± 0.15
AUUAAGCAAUAUUACGUUUC	-3.77 ± 0.35	-1.65 ± 0.26
AUUAAGCAAUAUUACGUUUU	-2.27 ± 0.11	-1.81 ± 0.12
AUUCAGCAAUAUUACGAAGA	-0.761 ± 0.13	-0.747 ± 0.12

Sequence	self-splicing fitness (ln) (30 °C)	self-splicing fitness (ln) (37 °C)
AUUCAGCAAUAUUACGAAGU	-1.52 ± 0.11	-0.236 ± 0.12
AUUCAGCAAUAUUACGAGGA	-2.81 ± 0.32	-1.63 ± 0.16
AUUCAGCAAUAUUACGAUCG	-1.87 ± 0.1	-1.5 ± 0.12
AUUCAGCAAUAUUACGAUGC	-1.27 ± 0.11	0.0653 ± 0.13
AUUCAGCAAUAUUACGCAAA	-1.04 ± 0.14	-0.821 ± 0.16
AUUCAGCAAUAUUACGCAAC	-2.05 ± 0.18	-0.188 ± 0.17
AUUCAGCAAUAUUACGCACA	-0.671 ± 0.096	-0.192 ± 0.1
AUUCAGCAAUAUUACGCACC	-0.502 ± 0.1	0.457 ± 0.12
AUUCAGCAAUAUUACGCAGG	-1.26 ± 0.12	-0.594 ± 0.16
AUUCAGCAAUAUUACGCGAU	-3.46 ± 0.18	-3.23 ± 0.26
AUUCAGCAAUAUUACGCUCC	-0.31 ± 0.073	0.274 ± 0.096
AUUCAGCAAUAUUACGGAAG	-1.02 ± 0.096	-0.0127 ± 0.11
AUUCAGCAAUAUUACGGAGU	-4.52 ± 0.34	-2.3 ± 0.23
AUUCAGCAAUAUUACGGAUU	-4.2 ± 0.22	-2.21 ± 0.2
AUUCAGCAAUAUUACGGCAC	-0.847 ± 0.074	-0.407 ± 0.096
AUUCAGCAAUAUUACGGCAG	-1.14 ± 0.11	-0.688 ± 0.14
AUUCAGCAAUAUUACGGGGA	-1.93 ± 0.094	-0.802 ± 0.083
AUUCAGCAAUAUUACGGGGG	-2.77 ± 0.15	-2.14 ± 0.16
AUUCAGCAAUAUUACGGGGU	-3.78 ± 0.39	-2.85 ± 0.26
AUUCAGCAAUAUUACGGUGG	-3.09 ± 0.15	-1.58 ± 0.14
AUUCAGCAAUAUUACGUCGC	-2.74 ± 0.099	-1.86 ± 0.11
AUUCAGCAAUAUUACGUCUU	-0.0261 ± 0.083	0.411 ± 0.089
AUUCAGCAAUAUUACGUGCG	-0.448 ± 0.095	-0.262 ± 0.13
